This is an account of results in US6465220B1, “Glycosylation using GalNac-T4 transferase” (GlycoZym ApS, priority 1998, dated 2002).

Substrate in this data set: C[C@H](NC(=O)[C@H](C)NC(=O)[C@@H](NC(=O)[C@@H](NC(=O)[C@H](CCC(=O)O)NC(=O)[C@@H]1CCCN1C(=O)[C@@H]1CCCN1C(=O)[C@H](C)NC(=O)[C@H](CO)NC(=O)[C@H](CO)NC(=O)[C@H](CO)NC(=O)[C@@H]1CCCN1C(=O)[C@@H]1CCCN1C(=O)[C@H](C)NC(=O)[C@@H]1CCCN1C(=O)[C@@H](NC(=O)[C@@H](NC(=O)[C@H](C)NC(=O)[C@H](CO)NC(=O)[C@@H]1CCCN1C(=O)[C@@H](NC(=O)[C@@H]1CCCN1C(=O)[C@@H]1CCCN1C(=O)[C@@H](N)CS)[C@@H](C)O)[C@@H](C)O)[C@@H](C)O)[C@@H](C)O)[C@@H](C)O)C(=O)O
Nature of the data set: GalNAc-transferase assay with purified recombinant GalNAc-T1. Format: biochemical, human. The following applies: other: acceptor substrate; pH 7.5. Here is the method:
The following examples are provided to illustrate certain preferred embodiments of the invention, and should be considered as illustration and not as limitation. In the examples, GalNAc-transferase assays were performed in 50 μl total reaction mixtures containing 25 mM cacodylate (pH 7.5), 10 mM MnCl2, 0.1-0.25% Triton X-100, 150-200 μM UDP-[^14C]-GalNAc (4,000 cpm/nmole) (Amersham) and 0.06-1 mM acceptor peptides. Peptides were either synthesized or obtained from Carlbiotech (Copenhagen), or Neosystems (Strasbourg), and quality was ascertained by amino acid analysis and mass spectrometry. Peptides Muc-1a, Muc-1b, and TAP24, were derived from the tandem repeat of human MUC1, Gendler et al., J. Biol. Chem. 265:15286 (1990), and Muc2, Muc5AC, and Muc7 from the tandem repeats of MUC2, MUC5AC, and MUC7, respectively. Gum et al., J. Biol. Chem. 264:6480 (1989); Porchet et al., Biochem. Soc. Trans. 23:800 (1995); Bobek et al., J. Biol. Chem. 268:20563 (1993). GalNAc4TAP24 was produced by in vitro glycosylation using GalNAc-T2 as described in Wandall et al., J. Biol. Chem. 272:23503 (1997). Products were quantified by scintillation counting after chromatography on Dowex-1, octadecyl silica cartridges (Bakerbond), or HPLC (PC3.2/3 or mRPC C2/C18 SC2.1/10 Pharmacia, Smart System). Products produced by in vitro glycosylation were in most cases also confirmed by mass spectrometry. […]

B1: GalNAc-T1 (Homo sapiens) (protein)
chain: GLPAGDVLEPVQKPHEGPGEMGKPVVIPKEDQEKMKEMFKINQFNLMASEMIALNRSLPDVRLEGCKTKVYPDNLPTTSVVIVFHNEAWSTLLRTVHSVINRSPRHMIEEIVLVDDASERDFLKRPLESYVKKLKVPVHVIRMEQRSGLIRARLKGAAVSKGQVITFLDAHCECTVGWLEPLLARIKHDRRTVVCPIIDVISDDTFEYMAGSDMTYGGFNWKLNFRWYPVPQREMDRRKGDRTLPVRTPTMAGGLFSIDRDYFQEIGTYDAGMDIWGGENLEISFRIWQCGGTLEIVTCSHVGHVFRKATPYTFPGGTGQIINKNNRRLAEVWMDEFKNFFYIISPGVTKVDYGDISSRVGLRHKLQCKPFSWYLENIYPDSQIPRHYFSLGEIRNVETNQCLDNMARKENEKVGIFNCHGMGGNQVFSYTANKEIRTDDLCLDVSKLNGPVTMLKCHHLKGNQLWEYDPVKLTLQHVNSNQCLDKATEEDSQVPSIRDCNGSRSQQWLLRNVTLPEIF
notes: Control constructs pAcGP67-GalNAc-T1-sol, pAcGP67-GalNAc-T2-sol, pAcGP67-GalNAc-T3-sol, and pAcGP67-O^2-sol were prepared as previously described; made in house; host or cells: insect cells (baculovirus, pAcGP67)
One may read the Km as the concentration of substrate that gives half-maximal velocity. As to B1, the Km is 40 µM and the Vmax came out at 0.76 nmol/min/µg.
